2 molecules from patent US20060281673A1, “Novel peptide inhibitor of hiv fusion that disrupts the internal trimeric coiled-coil of gp41” (priority 2003, published 2006) can be followed below.

One experiment concerns the target N36^Mut(e,g). Briefly: cell-based or functional assay.
Experiment [1] addresses pre-hairpin intermediate of gp41 (HIV-1 Env on effector cells) (HIV-1), P03377. Briefly: cell-based or functional assay.

Where only a bound is given, the exact number is not on record here.

B1: N36^Mut(e,g) (peptide)
peptide: SGIDQEQNNLTRLIEAQIHELQLTQWKIKQLLARIL
modifications: not checked
In the experiment with N36^Mut(e,g), B1 displayed a α: factor relating the homotrimerization association constant of L to Kref^trimer, fitted to the fusion inhibition data at λMT=1.5×10^-4 M of 0.34 and a α: factor relating the homotrimerization association constant of L to Kref^trimer, fitted to the fusion inhibition data at λMT=1.5×10^-5 M of 1.07. In experiment [1], the IC50, inhibition of HIV Env-mediated cell fusion (vaccinia virus-based reporter gene assay) is 308 nM; the fold activity in inhibiting fusion relative to N36 amounted to 50 fold; the β: factor relating the heterotrimerization association constant of M and L to Kref^trimer, fitted to the fusion inhibition data at λMT=1.5×10^-4 M came out at 5.76; the β: factor relating the heterotrimerization association constant of M and L to Kref^trimer, fitted to the fusion inhibition data at λMT=1.5×10^-5 M came out at 2.97.

B2: N36^Mut(a,d) (peptide)
peptide: SGIVQQLNNQLRAEEANQHLEQLSVWGSKQNQARRL
modifications: not checked
In experiment [1], B2 registered an inhibition of HIV Env-mediated cell fusion (vaccinia virus-based reporter gene assay) of more than 0.1 mM.
